Measurements as given in the supplement of paper PMC12636428.

System: Saccharomyces cerevisiae
Experiment: transcriptional activation domain activity (GFP:mCherry ratio, weighted mean of sorted bins, harmonized to initial dataset scale) (arbitrary fluorescence ratio units); higher = stronger transcriptional activation
Conditions: beta-estradiol 1 µM; induction time 4 h
Experimental: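 53-aa protein tiles (fungal proteins plus yeast TF control tiles) fused C-terminally to a DBD-estrogen-binding domain-mCherry synthetic TF, integrated in S. cerevisiae (URA3 locus) with a GFP reporter. Cells were induced with 1 uM beta-estradiol for 4 h at 30 C, FACS-sorted into 8 bins by GFP:mCherry ratio and barcodes sequenced. Activity is the read-weighted mean bin fluorescence (GFP:mCherry), averaged over barcodes (median 12); tiles under 50 reads were discarded. New active-learning values were harmonized by linear fit onto the scale of the initial (Hummel et al.) dataset. The assay saturates at low and high signal.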

Sequence | transcriptional activation domain activity
DTCTKVHGRVFSREVHHIRFNRITTSTIVALRVASEVGAIWMLPMIYYTIVCW | 24200
DTIYIFHALLVVFWVSLMQEPAFPYKLLIPILYITILLIPFTSQVFLPAVPVL | 49400
DTKLIAISDANELKGFDSQCIEEWDPILFSAAEIWPTKGKPIALVEMDPIDFD | 145000
DTMIRLFVGWLEEDPSSDRVLPRVHLGEIGIPVKLDLSSPSAVLVVSRLLCSL | 74100
DTNLPTNPEAIQLHGDEDIKAWLVLAKNLAINPSRILVVLHRAVRGTQTPALG | 40400
DTPFALHTLLIMHGHILLCENAKVSLDSSDTLNIFVPLVTVLINRLTNRKEYS | 32800
DTSSFFLRFFHFPFLQLFLLQCLISPCLYVRTCPISLLLLWWCFYSVFFCVRG | 50300
DTWGMEMEMEMEFLFLFLFVIFFLPCLSFFFSYFFSSNLLFFFFVFVMSFSFM | 73000
DVDEAGEARGDSSSLCLSFLSLLLFFLFFLFFLLFRFLHLLHFFLFLLVFHFF | 47600
DVDVDVGVDGRGRGFEAGDGREDGKGEEEGGRRLKRAGTDGEAVGGARAREVW | 32500
DVDWWNVSSSETTFDAASLPLDVWDPLLPHDTGLSEIEVTTCWLDPWIIPFIT | 132000
DVEMLKGLALRNPLEEGEDEAASLSQYAVNRQILLTYVILKLKLIRGKCILFV | 35000
DVGNSVWHVDCCSPYVNGGSGWGFFNAILGWTNSATYGSVISYNLYWLFVIAV | 51100
DVKISNDFFDNGDNLYGNDEEVLFYEDNYNPKMQWSLQDNSAAINNEDARAIF | 107000
DVKKVYFASRFPGNWLRDYSQAMDIAGLSKLSSDTLVLVVAVLGFMTFGFATE | 38900
DVNTGATSAPLSVGDVRHVAAPLEESGGCTLAMLVDDDGVMRIVVLRVTVDPV | 35300
DVPEEKKAESEKVDSDQEKAESEAKKIDETPAKETADKPEEKSEDKAEDKAAE | 26100
DVVDHSGDLFIRCNEIFGRQCIRNYIPSDPIWLIPLLGLLHRRLMYKVRLIYP | 71700
DVYNEGHICNHSDDEGRYAYKYQPTMILYAIRALLRSLSVLIGAEEELGNAVA | 36400
DWESIGAASLRNNSLAPNIDSVASSTNGVVSPKPTNPSFTNSQNGDIEPPLQH | 46900
DWYFDLPLWVFVCFFLFVFLTLMTFRTPSLTRYYCTVVYYLLGKWVGNCIVYT | 18200
DYCSFNSFPPSHFMSLYKNLGSFFLLSSFPPPPFFFVLLYLPASCLCFFCLFF | 54500
DYLWADMDSFFPFVRLLPTPVQEIWDMTFDIALLPLMECPPPEEWTLFDTYAY | 52400
DYSIAQFRFLLKLLLVHGRWNYMRACKYTLGTFWKEMLFYLTQALYQRWNGYT | 64700
DYSIAQFRFLQRLLLVHGHWNYNRIAQYALATFWKEMLFYCIQLLYQRWNGYT | 37500
DYTNWLGRNIVAWASKEPSTDDVKLCSGLLVKGLRLGHSDALVKLLVSMLFLT | 49000
EAAAAAKRKRRKATSDSPEQARRGHVARKTAVACNFCRGRKLRCNGAKPSCSN | 22800

Sequence | transcriptional activation domain activity
EAAAGSVKNEAGESSASSAARGGRGGRRGGGGPGSRGGKVGRGRGGRAGASQE | 32500
EAAARRERKQAAEKGENRERKRRTQGLQNNTARSQKDGDGKGEGGKDNKKDGK | 29200
EAAHVNGLGIADLDVLLGLNGRSSDVDMTTTLPSLKPPLQNGEIKADSIDNLD | 53300
EAANGDDAEPAAEQNGADIQTAAASPAESTKKDNKKKDKKRSREEEGANGAAA | 39500
EAAPKEDAAPEPAPEKESKPEKAPEPKAEASKPAAPPASEKKDLKTAPKEETK | 28500
EAARKETDAEGVRKTKVKKSRKRKAPEDGLEADEEGAARRTARARKTPAEAEA | 28700
EAATKVDAAADGTDEVADRIADLDVSTSSNSKKKKKNSKSKKKAAKEEPVRLR | 47300
EAAVTSDDEAGPAKKAKRGSVFEKFGGKFKSHKAAEKEPEAKEEAKEEEAKPA | 14000
EADEEAAKAEHVHAPGEGGEGEGGGGPRRLEGKEGEREQKEIERQKKAEKDEK | 44400
EADGERRSNGGSAGPRAGRRGGRDRDDRKGKPSKDSKARGEKSSEEKIGSNKE | 47500
EADGEVKTKSKKSKKQKGDAADSAEADDAKSAVPEGTDATKKKKKRKTQEPSD | 30600
EAEAEAAPEAEAAKPKNRGGRPKKAVLPAAAAPAPKEKEEPKPKATAGRKRKA | 33400
EAEAGADGSEGGEDDGREKEEVEEEGGEEEGGEEEGREDDDTKAEAEAEELSE | 26600
EAEARGSGGGGERQRDCERQREPRATRAGGDAGARDGAGARGLARGAAGVAAM | 51700
EAEDAPAAAVSIEEDAPVKEVEAPAPEPEVLEPEKPKEPSPTPVAAATKPAAP | 49100
EAEDDEEDADAAGGKKPKAKKRKRESTVKESAEEKKGKRKRASEQLAKQRRGK | 22600
EAEDGAEKPKRGRKRKEPPAEAEANGDEPAPAAEEEEAPPAKKTKPSSSPLAK | 27800
EAEDTAAARLKRAKSERMRLRTRVVQAMWAEASEEERGAAEAEVAREKEAIRA | 30400
EAEEEESEKKDKKRKKDKEGKKKKKSKSSEEKETEEEKVEEKKSEESSESKKD | < 6570
EAEEGGAGKRKAGSPEDTEQQQESSEKSTESNHKPATKRSTVSERPSKGKRRS | 11500
EAEGEAGAEEPAAEGEAGAEGEAGGEGELEAEPAAEGEGEAEPEAGAETEAAG | 13200
EAEIGVAAEDKISPQKARRKAKVEKEDGKAEEGAEGQKTTKRRRKTKEEKEEE | 14900
EAEQEVQQKPAKGKKALAAAKSSAEDAEPEAAPAPKKSALKDGEASAAAPAPS | 21800
EAERERLEREVEAENVRKAEEERKEKERLVKEARERAAREAAEREAAAAAAAA | 52700
EAEVTATGEKSSPARVVVLRARAADAGKLVSIAEIAKREIEKGTGGQGGGSGG | 18100
EAGAEEAAAGAGGRQEAASVEEAAREAARRRQQAEAGRGRRRRQPAGAEEAAE | 33300
EAGNERRESSRRHDDTERRERRRHRSHDRGHDRERRHRRHRRSRSRDRDGGRE | 34300

Sequence | transcriptional activation domain activity
EAGREAGKAGREEKQVKQDEERTAEDTETGKHEEDRNGEQKQRDRKTRRGKIR | 25300
EAKAEEAAPTEAPAADAPAAEPAAEASATEEAKPAEAAKEEKKEDRPKSPSLL | 8420
EAKEGEDGEKEKPKRGRKRKEPAADAEDEAADGDAADGEEPPAKKAKPASKAA | 61800
EAKKEGEHGAAPAGEHGAAPAAGGHGAEAKKEGEHGAAPAAGGHGAAPAAGGH | 21300
EAKTDAETAVETQPEPKEEVATEETTKSAAKPAGAKKGGKKRAQPEKPADEAA | 12500
EALMRRFISKGGFMTSRINWAIQSSGVDYLHLLIVSMEYLIRRFNLNARLAIT | 49400
EALPDDLYFTDFVSPFTAAATTSVTTKTVKDTTPATNHMDDDIAMFDSLATTQ | 47700
EAPAAEPVKETETAAEAAPAEAPAEAAAEETKEEKKEEKKEEKVKASKVGRRL | 44900
EAPAPKKARGRPKKAAVKEDDAGSEEEAPAPKKAKGRLPKAVLKEEAESEAEA | 12900
EAPAPVEEQPVQEPEPEAIPEPEPVPQETPQAYEEPPAPEPKPAPTPKAQPVQ | 23300
EAPEPAADAPPPRRVRMSKPKVKTGCRECKTRRVKCDEARPACTRCTRGRREC | 36800
EAPKPAPEQPKPKPVQEKPAAPAAETKEKGKAAPEPEAEDKKPARRPRKAKQP | 8950
EAPREIKAKPEKKKAKPAEAAAPKKESKGKKVKADKKAGADKKADPAAAPAAG | 15300
EAPVEAPIEVPVEAPVEAPVEAEKPAEEIETPAEAVVEKPAEETEKPAEAVVE | 31900
EAQAEEEVAPAPKPRGRPRRAAAEAPAPEISKPTTRGRAKKVEAPAEDVIVVE | 24100
EARNIVGIKNIDLYKGPLFVFWAPMNPSHVGWNGGMHLYAWRCKLLSNLPYHF | 25600
EARRSTREREREEGKSSGGGKGRRGRSGKPRGGGRGAGASGANPGPGAAAGAE | 29100
EARTLVMHAQQGFSFHFGCQMSLSGMMLLSYILLLPPIFTGYQLLWLLWIVFP | 61400
EASLKAQKDEENESEEEGEGEEKEEGEKKEEEKKEEEKKEEEKKEDLEKLTEK | 33100
EASPQPSPQPESQPAPEASPQPEPQPSSKPSPQPESQPVPEASPQPEPQPSPQ | 18200
EASRSKAATAAAAAADGGKSAAAGEVEERKRKAKAEREAKKAKGALAAAAGAG | 31600
EASSDGEGAASASDASGDRELVKAKAKKKKKAAGEEGDKPKKKKKSSPKKAKE | 27100
EATEPAEKPKRKRGRPPGSKNKKTLAAQGGTGEASAAEPPPKRPRGRPPKRKP | 34600
EAVESKPVKKAKGKPKKAIETPEPDAEESTGAEAVESKPVKRAKGKSKKAIKT | 53100
EAVKKSAERRDSATKSTSPAPAKEEKKEEGKKPEKKEAKPDDKKGEEAGEDKG | 10800
